The target of experiment [1] is T1, recombinant rhesus OX40-his (Sino Biological, Cat#:90846-C08H) (rhesus monkey, UniProt P43489 29-214 (human entry)).
T1 construct: bought protein; also called monkey OX40-his; rhOX40-his; not shown: His tag
T1 chain: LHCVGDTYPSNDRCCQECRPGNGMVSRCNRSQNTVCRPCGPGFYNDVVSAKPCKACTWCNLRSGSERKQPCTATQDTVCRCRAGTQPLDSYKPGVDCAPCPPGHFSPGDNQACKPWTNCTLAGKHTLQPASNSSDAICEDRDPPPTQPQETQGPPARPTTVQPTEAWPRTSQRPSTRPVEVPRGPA
The experiment can be described thus: ELISA on coated rhesus OX40-His, OD450. For orientation: ELISA stands for enzyme-linked immunosorbent assay.

Experiment [2] concerns the target T2, recombinant human OX40-his (Sino Biological, Cat#:10481-H03H) (human, UniProt P43489 29-214).
T2 construct: bought protein; also called hOX40-his; not shown: His tag
T2 sequence: T1 chain with Q16H, N29S, A50S, A55P, P70L, P145A, T159I, R173G, R183G, P185R
The experiment can be described thus: SPR Biacore 8K, OX40-His on chip, antibody injected.

Experiment [3] has as its target T2, recombinant human OX40-his (Sino …). The experiment can be described thus: ELISA on coated human OX40-his, OD450.
In experiment [4] the target is T3, murine OX40-His (Crown, Cat#: E3350-B1707) (mouse, UniProt P47741 20-211).
T3 construct: bought protein; also called mouse OX40-his; muOX40-his; not shown: His tag
T3 sequence: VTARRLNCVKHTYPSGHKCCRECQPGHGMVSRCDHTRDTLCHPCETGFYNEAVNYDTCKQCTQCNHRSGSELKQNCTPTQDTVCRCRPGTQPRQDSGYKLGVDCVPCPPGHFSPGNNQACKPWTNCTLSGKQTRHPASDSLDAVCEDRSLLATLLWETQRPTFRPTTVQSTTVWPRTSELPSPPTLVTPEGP
The experiment can be described thus: ELISA on coated mouse OX40-His, OD450.

Experiment [5] deals with T3, murine OX40-His (Crown, Cat#: …). The experiment can be described thus: ELISA on coated mouse OX40-His, OD450. This is another data set of the same source.
For experiment [6], the target named is T2, recombinant human OX40-his (Sino …). The experiment can be described thus: ELISA on coated human OX40-His, OD450.
For experiment [7] the target is unchanged. The experiment can be described thus: ELISA on coated human OX40-his, OD450. This is another data set of the same source.
Experiment [8] has as its target T1, recombinant rhesus OX40-his (Sino …). The experiment can be described thus: ELISA on coated rhesus OX40-His, OD450.

Substitutions are numbered along the chain they refer to. Read-outs that look alike come from different tables or passages of the source.

B1: 68C8-VH2VL3 (antibody, human IgG1, kappa, V domains shown)
VH: QVQLVQSGAEVKKPGASVKVSCKVSGDTFTSYWITWVRQRPGKGLEWMGDIHPGSGSTNNNEKFKNRVTMTVDTSTDTAYMELSSLRSEDTAVYYCATLRPYYFVYWGQGTLVTVSS
VL: DIQMTQSPSSLSASVGDRVTITCRASQDISNYLNWYQQKPGKTVKLLIYYTSRLLSGVPSRFSGSGSGTDYTLTISSLQPEDFATYFCQQGNTLPLTFGQGTRLEIKR
notes: humanized; also called 68C8-H2L3; 68C8H2L3
A word on the Kd: it is the free concentration of one partner at which half of the binding sites on the other are occupied at equilibrium, for simple one-to-one binding. For orientation: koff means the rate constant with which the complex falls apart. Broadly, the kon is the rate constant with which the complex forms. Broadly, the EC50 (read off the curve) is the midpoint of the concentration-response curve. For B1, the binding result in experiment [1] is reported as “binds”. Also, in experiment [2], the Kd is 1.96 nM, the koff was found to be 0.000927 s⁻¹ and the kon stood at 473000 M⁻¹ s⁻¹. The “EC50 (read off the curve)” value in experiment [3] is ~3 ng/mL. In experiment [4], the binding result is “no binding (tested: 10000 ng/ml (log 4))”.

B2: 71H8-VH2VL3 (antibody, human IgG1, kappa, V domains shown)
VH: B1 VH with D27Y, H52Y, N60Q, N66S
VL: B1 VL
notes: humanized; also called 71H8-H2L3; 71H8H2L3
For B2, in experiment [5], the binding result is recorded as “no binding (tested: 10000 ng/ml (log 4))”. Also, the concentration giving a half-maximal response (EC50 (read off the curve)) in experiment [6] was ~3 ng/mL. In addition, in experiment [2], the Kd worked out at 4.57 nM, the koff came out at 0.00198 s⁻¹ and the kon stood at 434000 M⁻¹ s⁻¹. The 50% effective concentration (EC50 (read off the curve)) in experiment [7] was ~7 ng/mL. For the same molecule, in experiment [8], the “EC50 (read off the curve)” value is ~3 ng/mL.

Values taken from patent US10442866 (BEIJING MABWORKS BIOTECH, dated 2019).
